Experimental data published in patent US20200095301A1 (published 2020).

Key:
[1] = molecular target: human IL-13Rα1 ectodomain, biotinylated (human) (UniProt P78552); assay: SPR; equilibrium; settings: ligand
[2] = molecular target: human IL-13Rα1 ectodomain, biotinylated (human) (UniProt P78552); assay: SPR; kinetic; settings: ligand
[3] = molecular target: T1, human IL-13Rα2, biotinylated (human, UniProt Q14627 27-343, biotinylated (site not stated)); assay: SPR; kinetic
T1 chain: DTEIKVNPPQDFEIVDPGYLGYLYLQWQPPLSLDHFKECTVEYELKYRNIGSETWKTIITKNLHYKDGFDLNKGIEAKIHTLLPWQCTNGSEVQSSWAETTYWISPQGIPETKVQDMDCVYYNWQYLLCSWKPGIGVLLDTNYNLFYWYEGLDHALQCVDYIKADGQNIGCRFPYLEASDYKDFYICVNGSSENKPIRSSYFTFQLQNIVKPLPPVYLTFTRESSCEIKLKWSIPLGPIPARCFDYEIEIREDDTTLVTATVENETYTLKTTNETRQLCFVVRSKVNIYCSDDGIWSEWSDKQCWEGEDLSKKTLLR

Sequence of human IL-13Rα1 ectodomain, biotinylated (human) (P78552 other isoform, or with tags, fused parts or gaps): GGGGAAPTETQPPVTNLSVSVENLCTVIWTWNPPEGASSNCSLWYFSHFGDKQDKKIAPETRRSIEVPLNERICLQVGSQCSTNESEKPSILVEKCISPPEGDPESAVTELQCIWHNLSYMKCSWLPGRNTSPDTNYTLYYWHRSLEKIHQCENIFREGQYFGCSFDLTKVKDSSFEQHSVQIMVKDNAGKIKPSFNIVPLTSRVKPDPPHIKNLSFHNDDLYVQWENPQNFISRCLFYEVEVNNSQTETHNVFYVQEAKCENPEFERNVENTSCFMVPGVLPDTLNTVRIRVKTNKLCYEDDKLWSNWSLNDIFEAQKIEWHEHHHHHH

“IL-13 superkine D7 [L10A, V18F, R86K, D87K, K89R, L101I, K104R, R108K]” was tested. Which Kd [1] did it give?
Its Kd is 4100 nM.

“IL-13 variant B4 [R11S, V18I, R86K, D87G, T88S, K89M, L101Y, K104R, K105T]” was tested. Which Kd [2] did it give?
Its Kd is 18 nM.

B1: IL-13 superkine D7 [L10A, V18F, R86K, D87K, K89R, L101I, K104R, R108K] (ligand)
chain: PGPVPPSTAARELIEELFNITQNQKAPLCNGSMVWSINLTAGMYCAALESLINVSGCSAIEKTQRMLSGFCPHKVSAGQFSSLHVKKTRIEVAQFVKDLLIHLRKLFKEGQFNHHHHHH
Which Kd [3] does the source give for B1 here?
Its Kd is 0.003 nM.
